Measured values taken from a protein production outcome set (Wang et al. 2014).

Assay: label from the status in PepcDB records

| Sequence | protein production |
| --- | --- |
| MKLVTISGPPSSGKTAVLAGVIRAMMASGLKVGALKYDCLATNDDDVFRAIGVPVQTGLSGNLCPDHYFVSNIEECLDWGIREGFDFLLSESAGLCNRCAPHIKGVLAVCVIDNLMGATTPKKIGPMLKYADIVVITKGDIVSQAEREVFAFQVRRANPRAKIMHVNGITGQGAGELASQFLLAPETTCLDGSRLRFSMPAALCSYCLGETRIGMEFQLGNVKKIKMSEEPARLEHHHHHH | not failed |
| MKLYKLLILDIDGTLRDEVYGIPESAKHAIRLCQKNHCSVVICTGRSMGTIQDDVLSLGVDGYIAGGGNYIQYHGELLYNQSFNQRLIKEVVCLLKKREVAFSIESQEKVFMNQKAKEIFETMNQLKGTNSCINKQHIQEKITYENNIEEYKSQDIHKICLWSNEKVFDEVKDILQDKMELAQRDISSQYYEIIQKDFHKGKAIKRLQERLGVTQKETICFGDGQNDIVMFQASDVTIAMKNSHQQLKDIATSICEDIFDNGIYKELKRRNII | not failed |
| MKMANHPRPGDIIQESLDELNVSLREFARAMEIAPSTASRLLTGKAALTPEMAIKLSVVIGSSPQMWLNLQNAWSLAEAEKTVDVSRLRRLVTQSTP | not failed |
| MKMHRDSISLNSYEEMAEYYFSYVDQKPFNAYYERPATLSLLPDVAGKRVLDAGCAAGWYTQWLLDKGAAVTAVDFSAGMIEMTRKRVGERAEIIRADLNEPLDFMAKESCDIVLSSLALHYLKDWTLVMSEFHRILAKGGLLIFSVHHPFMDFTVFQRDNYFLTELLDDEWETQKGKVKVQFYRRPLSQILSAVLEAGFLLEKVLEPMPTEEFKSAQPDAYRRLTYKPQFLFLRARKP | failed |
| MKMKHMKPYTTMKTVLSTLAIALAFGPLHNAQACTRILYETGNQSYISGRSMDWADPSAATALWVFPKGMKRDGTVGDNPIKWSAKYGSIIVSFYDAGTADGMNEKGLVANMLYLKEAKWGDATKAGKPTLTAGAWAQYFLDNYATVEEAVTAMANPPFTIIAPSLPNGDAAALHLSISDVNGDSAIFEYIDGKLVIHHGSQYKVMTNSPTFDQQLALNTYWQQIGGSKFLPGTINAADRFVRASYALSASPKYRDNDLALASVFSQIRAVSVPLGITDPDRPNLAMTLWRTFADHTAKIYYFESAVFPAVSWLDMSKVDLTEGAAPKVVRVERGQPLAGELSAALKPAEPFKWLGAE | failed |
| MKMKILGISFGTKNGNNDTMCKVALKGAKEAGAEVEFIQMSSINIKHCTGCCACVKTLLSGKGSMCVLKDDFEWLLDKMKDADGIVVSDPIFEEGASGLFHTIMDRFGPRADRGNNIIGTKVAEAIGGKIPDSRMLNDKVISFMGIGGSDWGTRVQCEHAMLALIPMWKVIDNAWFPWAKELVMDDTRLVQVHQIGLNIVEAAKDFEKASYQGEEGVCPHCHNRLFYLEPGTKKAICALCGIVGELDTISGKTIFSFPEEQLGHAHDTLPGKFIHGDDIKKMEGHYAEVRKTQEFKERKTSYNFIETLTKEKQAGVSLG | failed |
| MKMKSKTKSCCQYTQWVVLALLTLIFASCKDNDDATGDFDPNKPVVISEFSPKEGGLGTRMLLYGENFGSDISKIKVTIGGQDSKVVGAKGKSLYCVVPAKAYDGDIKLSILNDEGEEIANTEANEKFVYQKKMLVTTFLGTMYDGNTKYDLKDGPFDDCGGFGGAVWLSFDPKNHNHLYLVGEQHPTRLIDFEKEYVSTVYSGLSKVRTICWTHEADSMIITNDQNNNDRPNNYILTRESGFKVITELTKGQNCNGAETHPINGELYFNSWNAGQVFRYDFTTQETTPLFTIQDSGWEFHIQFHPSGNYAYIVVVNQHYILRSDYDWKTKRLTTPYIVCGQQGAKDWVDGVGKKARMHAPRQGTFVKNPAYKGSSDEYDFYFCDRENHCIRILTPQGRVTTFAGRGSNGTSGYNDGDLRQEARFNHPEGIVYDEERECFFIGDRENRRIRKIGYEE | failed |
| MKMSELEKMLKGEHFDGASAEIEALRSQAGRLKLEINQSLDEAERYALQRELFGHLGHKSCVQPPFHCEFGKTIRIGDHTFINMNVVMLDGAPITIGDHVLIGPSTQFYTASHSLDYRRRQAWETICKPIVIEDDVWIGGNVVINQGVTIGARSVVAANSVVNQDVPPDTLVGGTPARILRSLKDPAESMAE | not failed |
| MKNDLFTEIIGQHTAKLLLTEAIERNQIAPAYLFSSEVEGVGKGKIALAFANAILSRGSRSAMAKHLPPPKGDAQGTASAGESKHLDILQIKPTYTENTSQQKSVPAIRVEQMREVIEFLSTSAVEGKQKVVIIYEADMLNPTAANKLLKTLEEPKTGTFILISSYPQKLLPTIKSRCQIIPFQRLTDEEVISVLKDQQIEATEKILAISSGSPGQAIANIKMLASISQEITKELEVPPDDILKALSLSNSISSWNHQTQLWLLTYLQYNWWQKLKSTKLLAKFTQARKQLLHHVTPRSVWDSLLLP | failed |
| MKNEPIYNLLNSINSPDDLRRLEVDQLPEVCDELRQDIIKELSCNPGHFAASLGTVELTVALHYVYNTPYDRIVWDVGHQAYGHKILTGRREAFSTNRKLGGIRPFPSPEESEYDTFTCGHASNSISAALGMAVAAAKKGDDQRHVIAIIGDGSMSGGLAFEGLNNSSTTPNNLLIILNDNDMAIDRSVGGMKQYLFNLTTSNRYNQLRFKASRLLFKLGILNDERRKALIRFGNSLKSMAAQQQNIFEGMNIRYFGPIDGHDIKNLSRVLRDIKDLKGPKILHLHTIKGKGFAPAEKHATEWHAPGKFDPVTGERFVANTEGMPPLFQDVFGNTLVELAEANPRIVGVTPAMPSGCSMNILMSKMPKRAFDVGIAEGHAVTFSGGMAKDGLQPFCNIYSSFMQRAYDNIIHDVAIQNLPVVLCLDRAGLVGEDGPTHHGAFDMAYLRPIPNLTIASPMNEHELRRLMYTAQLPDKGPFVLRYPRGRGVLVDWKCPLEEIPVGKGRKLKDGKDIAVISIGPIGNKARSAIARAESESGRSIAHYDLRFLKPLDEELLHEVGRTFRHIVTIEDGTIQGGMGSAVLEFMADHEYTPTVKRIGIPDKFVQHGTVAELYQLCGMDEDSLTKELLKQCELLPDMSKIKELTN | failed |
| MKNETLHTQEDIIKMLDSLLRPAEPFWNEFYANREKDVPFFENVPDENLVSYIQKKRVSKGKVLELGCGPGRNAIYLANEGFDVTAVDVSIEGINWAKERALAKGVEIEFICDSIFNLEVQNEFDFVYDSGCLHHIPPHRRVNYVDLIKNALKSGGYFGLTCFAAGDLDERNGSEITDWDVYRGWSLQGGLAYSEEKLREIFKGFEVIEIRKMEQIEQPNTMFGESFLWTALFKKNLEHHHHHH | not failed |
| MKNFLETIEDMILIINREGRLLYANTAVPKKLGYPHEELMSMHILTITSAGKMAEGEKILAELFAGKKESLPLSLEKKEGTSIPAKARIWQGKWHNEPCLFAIIKDLSKEERALEHHHHHH | not failed |
| MKNIVPPADIILNMLNEKPGADLDLLDFYKGYIRRASIEPSYSEEGFDKGKHINEDLRQEIEIAFLKGLVSLRHNICKKGSTVLIIVPSKSWFDLEHHHHHH | failed |
| MKNLNYGIIGLGKFGSVVADELIAGGHTVIVADKDEEALKSIQNPPSYAYILDSTNISALKEAGFHDVEVVIVSIGENVEKSILTLMALKDIGVKNIIAKATSNIHGQILSKLGATKVIYPEKESAKRLVKEFLTKDADYEVFDLSANTIRAIKINIDEKLAGNSLKHVAQNMKVISYKKLNSDWEILPDLETTTVYSGDVVILLGTVKELREFEH | failed |
| MKNPVPRIIKTPVIAMYHDDRREELTIEVELSDVKDENITLMMHENSFYIKAFSETVEYLGSFFLDGPVDPEKAVAANNNGMLTIKVPYKEGFTCARFIHVD | failed |
| MKNSEESSSSSEDTNNATDTNTSESQDISVNGPEKVGDVYEIDGGTAKVMAISNKETTVKTGPIQFTVKKVIAAVANEQLPFIDVQIESENTSDEVVRFRPSLAQLATSTGVQIDEPSLLESDRLLDEYVGKVNDSGSIIYVFDNEEDIKDLESIRLRISSPFNEDLKNLGDKLDLKINLEHLEHHHHHH | not failed |
| MKNSNRLIYTDNLEESLEETASLFEHHIKFYTEIIEKDKKVIKTFNKDFKIEHAKEVISKAHLKHSELNAFLIAAPSYGIEAQNALLKILEEPPNNVCFIMFAKSQNHVLATIKSRLIKEDKRQKIPLKPLDLDLSKLDLKDIYAFLKNLDKENFDSRENQRERIESLLESVNRHKIPLNEQELQAFDLAIKANSSYYKLSYNLLPLLLSLLSKKKTP | failed |
| MKNTELEQLINEKLNSAAISDYAPNGLQVEGKETVQKIVTGVTASQALLDEAVRLGADAVIVHHGYFWKGESPVIRGMKRNRLKTLLANDINLYGWHLPLDAHPELGNNAQLAALLGITVMGEIEPLVPWGELTMPVPGLELASWIEARLGRKPLWCGDTGPEVVQRVAWCTGGGQSFIDSAARFGVDAFITGEVSEQTIHSAREQGLHFYAAGHHATERGGIRALSEWLNENTDLDVTFIDIPNPA | not failed |
| MKNVLLLGESGFVGSVVYNSLHCVCKVYTIAPNKKITIDNVFEVANDVFKSIEINNIDVVINCIAMANLDQCENNKLDCELVNTTFVTHIVDYLKDKDIKLVHISSNAVYDGLNAPYSENSLREPINYYGICKSNADYYIESNLNNYAIARPITVYGPRKIEQRDNPVSFIVKKILSGESFDLVDDNIVNMIHVEDLSNAIKKLSLSDLKGVYNLSGDVSECRYDLGIRIAKIMGSDLNKINKVSGSNFKMAAKRPYNTSFDNKKMKSVLNIEPKNIDIAISEILNAKAY | failed |
| MKNYQKMSVAQDARVELHDSLALTGAEVSINHLPAGAGVPFVHSHKQNEEIYGILSGKGFITIDGEKIELQAGDWLRIAPDGKRQISAASDSPIGFLCIQVKAGSLEGYTMTDGVVQLEHHHHHH | not failed |
| MKPFMNNTKQLKRPLLNKQELALFAATILWGITFLVIHIAVRYSGPLFFVGFRFMVASLICGAIFWRSLKGITVYEIFAGMAIGLGMFLGYALQATGLQTIISSQSAFITALYVPIVPILQWIVFKKPPRLACWLGIIFAFIGLILISGKKSGSFDFSKGEILTLLGALAIAGEVILIGIFAHKVDSRRVTIIQLFFSGLFSFFCMPFIGESIPPFSWVWLNIGIGLALMSAIIQLAMNWAQKSISPTRATLIYAGEPVWAGIVGRLAGEHLSPLALLGGALILIGIVVAELQPSQWRKKKNNLKK | failed |
| MKPIRYTIAPAAPEAHLFTVTVTVDAPDPQGQRFSLPAWIPGSYMIREFARNIVRIEAMCGERAVRLAKLDKHTWQAAPCSGPLTVSYDVYAWDLSVRAAHLDPTHGFFNGTSVFLRVEGGEQVRCLVDIQPPAGDAYRGWRVATALREASGRVQGRVGAKRYGFGWYEAADYDELIDHPVEMGTFALVSFEACGAQHDAVFTGRVPNLDLERIARDFKRICEAQIRLFEPHTAAAPFLDSNRRYVFMTMVTTDGYGGLEHRASTALICARNDLPVTGRDETTEGYRTFLGLVSHEYFHTWNVKRIKPAVFVPYALDREVHTPLLWLFEGFTSYYDDLMLVRSGLISEAQYLEMLAKTWNGVLRGSGRLKQSVAESSFDAWTKYYRQDENAPNAIVSYYTKGSLVALALDLTIRTQTGGEHSLDDVMRALWAAGGRDFYAPGHAQRGVTEAELIALMEETTGLRLRTLVRQLAEGRDDPPLPALFKAIGVTATRKPAEAALGLGAKVGAENGFVKLLQVFDGGPAQRAGLSAGDLVVAVDGLRVLSGQLDKSLARHRAGDTVPVHVFRRDELMQLDVTLSADATPQFALALSAEPSPLRSAWLGKRAAARGARPAKSRSAA | failed |
| MKPLRTRFLRWRGAAAGGLLAGALLASPAWAAKQADWWVYVHNDKARDIGALLAAGADPNVRYDNGQPAIMRAVVDNAWEVFDVLAANRRTDLNAENPAGETPLMYLAVAGQTERAQALIARGAQVNRLGWTPLHYAASKGRLETARMLLGKQALVNAPSPDGTTPLMMAAYSGDRRMVQLLLDAGADITTRNLKGMSAADWAAFGKSEALARELKPMIARAEAERQARHGAVATSKLAPAAETPPTAQPAAASAAASQPGEGRSLSGVSGVRLNSYD | failed |
